According to US20240368565A1, “COMPLEMENTATION-BASED TAGS AND REPORTERS FOR DUAL-MODALITY LABELING” (Promega Corporation, priority 2023, published 2024):
Peptide text beside a SMILES is read from it. * marks the point of attachment. Biotin = O=C1N[C@H]2[C@H](CS[C@H]2CCCCC(=O)*)N1

Key:
Test in all cases: biochemical
Type in all cases: binding
[1] = molecular target: HaloTag[22-297](M2F + K140E)-12xGly/Ser-LgBiT-3xGly/Ser-6xHis (Rhodococcus rhodochrous, UniProt P0A3G2, A155T/A167V/A172T/A224E/C128F/C176G/D78G/E257K/H272N/K175M/K195N/L47V/L88M/N227D/S58T/T264A/Y273L/Y87F); conditions: biotinylated peptide on streptavidin probes, PBST, 25° C.
[2] = molecular target: HaloTag[22-297](M2F + D53G + K140E)-12xGly/Ser-LgBiT-3xGly/Ser-6xHis (Rhodococcus rhodochrous, UniProt P0A3G2, A155T/A167V/A172T/A224E/C128F/C176G/D73G/D78G/E257K/H272N/K175M/K195N/L47V/L88M/N227D/S58T/T264A/Y273L/Y87F)
[3] = molecular target: LgBiT-6xHis (Oplophorus gracilirostris, UniProt Q9GV45, A31E/A60N/A81I/D135N/F58L/F95D/G42A/G62A/G78A/G94A/G98A/H120P/I103V/I117V/I134L/K70R/L176M/L54V/L73R/L99Q/M102E/N171T/P142E/Q151K/Q38E/Q45L/V71I/Y165I)
LgBiT-6xHis, sequence (Q9GV45 28-183 with tags or gaps with the stated changes limits assumed): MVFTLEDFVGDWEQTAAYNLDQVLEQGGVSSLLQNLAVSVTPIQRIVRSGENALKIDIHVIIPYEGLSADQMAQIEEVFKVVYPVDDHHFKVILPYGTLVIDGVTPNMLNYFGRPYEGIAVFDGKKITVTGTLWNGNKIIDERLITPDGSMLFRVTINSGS

[4] = biotinylated peptide on streptavidin probes, PBST, 25° C.

## EIKTGFPFDPHYVKVLGGGSGVSVSGWRLFKKIS [HaloTag[3-19](G3K + E14K)-4xGS-VSHiBiT]
[1]
  Koff: NA (dissociation that is too slow for the instrument to measure (limit 10^6 l/s))
  Kon: 128000 M⁻¹ s⁻¹

## ERGTGFPFRPHYVEVLGGGSGVSVSGWRLFKKIS [HaloTag[3-19](I2R + D9R)-4xGS-VSHiBiT]
[1]
  Koff: NA (dissociation that is too slow for the instrument to measure (limit 10^6 l/s))
  Kon: 128000 M⁻¹ s⁻¹

## EIGTGFPFDPHYVEVRGGGSGVSVSGWRLFKKIS [HaloTag[3-19](L16R)-4xGly/Ser-VSHiBiT]
[1]
  Koff: NA (dissociation that is too slow for the instrument to measure (limit 10^6 l/s))
  Kon: 77900 M⁻¹ s⁻¹

## CC[C@H](C)[C@H](NC(=O)[C@H](CCCCN)NC(=O)[C@H](CCCCN)NC(=O)[C@H](Cc1ccccc1)NC(=O)[C@H](CC(C)C)NC(=O)[C@H](CCCNC(=N)N)NC(=O)[C@H](Cc1c[nH]c2ccccc12)NC(=O)CNC(=O)[C@H](CO)NC(=O)[C@@H](NC(=O)CNC(=O)[C@H](CO)NC(=O)CNC(=O)CNC(=O)CNC(=O)[C@H](CC(C)C)NC(=O)[C@@H](NC(=O)[C@H](CCC(=O)O)NC(=O)[C@@H](NC(=O)[C@H](Cc1ccc(O)cc1)NC(=O)[C@H](Cc1c[nH]cn1)NC(=O)[C@@H]1CCCN1C(=O)[C@H](CC(=O)O)NC(=O)[C@H](Cc1ccccc1)NC(=O)[C@@H]1CCCN1C(=O)[C@H](Cc1ccccc1)NC(=O)CNC(=O)[C@@H](NC(=O)CNC(=O)[C@H](CCCNC(=N)N)NC(=O)[C@H](CCC(=O)O)NC(=O)CCCC[C@@H]1SC[C@@H]2NC(=O)N[C@@H]21)[C@@H](C)O)C(C)C)C(C)C)C(C)C)C(=O)N[C@@H](CO)C(=O)O [HaloTag[3-19](I2R)-4xGly/Ser-HiBiT] (Biotin-ERGTGFPFDPHYVEVLGGGSGVSGWRLFKKIS-OH)
[2]
  Kd: 0.323 nM

## ERGTGFPFDPHYVEVLRGGSGVSVSGWRLFKKIS [HaloTag[3-19](I2R + G17R)-4xGS-VSHiBiT]
[1]
  Koff: NA (dissociation that is too slow for the instrument to measure (limit 10^6 l/s))
  Kon: 93300 M⁻¹ s⁻¹

## EIGTGFPFDPHYVKVLGGGSGVSVSGWRLFKKIS [HaloTag[3-19](E14K)-4xGly/Ser-VSHiBiT]
[1]
  Koff: NA (dissociation that is too slow for the instrument to measure (limit 10^6 l/s))
  Kon: 108000 M⁻¹ s⁻¹

## ERGTGFPFDPHYVEVLGGGSGVSVSGWRLFRRIS
[2]; [4]
  Koff: NA (dissociation that is too slow for the instrument to measure (limit 10^6 l/s))
  Kon: 71400 M⁻¹ s⁻¹

## CC[C@H](C)[C@H](NC(=O)[C@H](CCCCN)NC(=O)[C@H](CCCCN)NC(=O)[C@H](Cc1ccccc1)NC(=O)[C@H](CC(C)C)NC(=O)[C@H](CCCNC(=N)N)NC(=O)[C@H](Cc1c[nH]c2ccccc12)NC(=O)CNC(=O)[C@H](CO)NC(=O)[C@@H](NC(=O)[C@H](CO)NC(=O)[C@@H](NC(=O)CNC(=O)[C@H](CO)NC(=O)CNC(=O)CNC(=O)CNC(=O)[C@H](CC(C)C)NC(=O)[C@@H](NC(=O)[C@H](CCC(=O)O)NC(=O)[C@@H](NC(=O)[C@H](Cc1ccc(O)cc1)NC(=O)[C@H](Cc1c[nH]cn1)NC(=O)[C@@H]1CCCN1C(=O)[C@H](CC(=O)O)NC(=O)[C@H](Cc1ccccc1)NC(=O)[C@@H]1CCCN1C(=O)[C@H](Cc1ccccc1)NC(=O)CNC(=O)[C@@H](NC(=O)[C@H](CCCCN)NC(=O)[C@H](CCCNC(=N)N)NC(=O)[C@H](CCC(=O)O)NC(=O)CCCC[C@@H]1SC[C@@H]2NC(=O)N[C@@H]21)[C@@H](C)O)C(C)C)C(C)C)C(C)C)C(C)C)C(=O)N[C@@H](CO)C(=O)O [HaloTag[3-19](I2R + G3K)-4xGS-VSHiBiT] (Biotin-ERKTGFPFDPHYVEVLGGGSGVSVSGWRLFKKIS-OH)
[3]
  Kd: 0.323 nM

## EIKTGFPFDPHYVEVRGGGSGVSVSGWRLFKKIS [HaloTag[3-19](G3K + L16R)-4xGS-VSHiBiT]
[1]
  Koff: NA (dissociation that is too slow for the instrument to measure (limit 10^6 l/s))
  Kon: 97100 M⁻¹ s⁻¹

## CC[C@H](C)[C@H](NC(=O)[C@H](CCC(=O)O)NC(=O)CCCC[C@@H]1SC[C@@H]2NC(=O)N[C@@H]21)C(=O)NCC(=O)N[C@H](C(=O)NCC(=O)N[C@@H](Cc1ccccc1)C(=O)N1CCC[C@H]1C(=O)N[C@@H](Cc1ccccc1)C(=O)N[C@@H](CCCNC(=N)N)C(=O)N1CCC[C@H]1C(=O)N[C@@H](Cc1c[nH]cn1)C(=O)N[C@@H](Cc1ccc(O)cc1)C(=O)N[C@H](C(=O)N[C@@H](CCCCN)C(=O)N[C@H](C(=O)N[C@@H](CC(C)C)C(=O)NCC(=O)NCC(=O)NCC(=O)N[C@@H](CO)C(=O)NCC(=O)N[C@H](C(=O)N[C@@H](CO)C(=O)N[C@H](C(=O)N[C@@H](CO)C(=O)NCC(=O)N[C@@H](Cc1c[nH]c2ccccc12)C(=O)N[C@@H](CCCNC(=N)N)C(=O)N[C@@H](CC(C)C)C(=O)N[C@@H](Cc1ccccc1)C(=O)N[C@@H](CCCCN)C(=O)N[C@@H](CCCCN)C(=O)N[C@H](C(=O)N[C@@H](CO)C(=O)O)[C@@H](C)CC)C(C)C)C(C)C)C(C)C)C(C)C)[C@@H](C)O [HaloTag[3-19](D9R + E14K)-4xGS-VSHiBiT] (Biotin-EIGTGFPFRPHYVKVLGGGSGVSVSGWRLFKKIS-OH)
[1]
  Kd: 0.111 nM

## CC[C@H](C)[C@H](NC(=O)[C@H](CCCCN)NC(=O)[C@H](CCCCN)NC(=O)[C@H](Cc1ccccc1)NC(=O)[C@H](CC(C)C)NC(=O)[C@H](CCCNC(=N)N)NC(=O)[C@H](Cc1c[nH]c2ccccc12)NC(=O)CNC(=O)[C@H](CO)NC(=O)[C@@H](NC(=O)[C@H](CO)NC(=O)[C@@H](NC(=O)CNC(=O)[C@H](CC(C)C)NC(=O)[C@@H](NC(=O)[C@H](CCC(=O)O)NC(=O)[C@@H](NC(=O)[C@H](Cc1ccc(O)cc1)NC(=O)[C@H](Cc1c[nH]cn1)NC(=O)[C@@H]1CCCN1C(=O)[C@H](CC(=O)O)NC(=O)[C@H](Cc1ccccc1)NC(=O)[C@@H]1CCCN1C(=O)[C@H](Cc1ccccc1)NC(=O)CNC(=O)[C@@H](NC(=O)CNC(=O)[C@H](CCCNC(=N)N)NC(=O)[C@H](CCC(=O)O)NC(=O)CCCC[C@@H]1SC[C@@H]2NC(=O)N[C@@H]21)[C@@H](C)O)C(C)C)C(C)C)C(C)C)C(C)C)C(=O)N[C@@H](CO)C(=O)O [HaloTag[3-19](I2R)-VSHiBiT] (Biotin-ERGTGFPFDPHYVEVLGVSVSGWRLFKKIS-OH)
[2]
  Kd: 0.713 nM

## CC[C@H](C)[C@H](NC(=O)[C@H](CCC(=O)O)NC(=O)CCCC[C@@H]1SC[C@@H]2NC(=O)N[C@@H]21)C(=O)NCC(=O)N[C@H](C(=O)NCC(=O)N[C@@H](Cc1ccccc1)C(=O)N1CCC[C@H]1C(=O)N[C@@H](Cc1ccccc1)C(=O)N[C@@H](CCCNC(=N)N)C(=O)N1CCC[C@H]1C(=O)N[C@@H](Cc1c[nH]cn1)C(=O)N[C@@H](Cc1ccc(O)cc1)C(=O)N[C@H](C(=O)N[C@@H](CCC(=O)O)C(=O)N[C@H](C(=O)N[C@@H](CC(C)C)C(=O)NCC(=O)NCC(=O)NCC(=O)N[C@@H](CO)C(=O)NCC(=O)N[C@H](C(=O)N[C@@H](CO)C(=O)N[C@H](C(=O)N[C@@H](CO)C(=O)NCC(=O)N[C@@H](Cc1c[nH]c2ccccc12)C(=O)N[C@@H](CCCNC(=N)N)C(=O)N[C@@H](CC(C)C)C(=O)N[C@@H](Cc1ccccc1)C(=O)N[C@@H](CCCCN)C(=O)N[C@@H](CCCCN)C(=O)N[C@H](C(=O)N[C@@H](CO)C(=O)O)[C@@H](C)CC)C(C)C)C(C)C)C(C)C)C(C)C)[C@@H](C)O [HaloTag[3-19](D9R)-4xGly/Ser-VSHiBiT] (Biotin-EIGTGFPFRPHYVEVLGGGSGVSVSGWRLFKKIS-OH)
[1]
  Kd: 0.126 nM
